In paper PMC4915627, “Staphylococcal Bap Proteins Build Amyloid Scaffold Biofilm Matrices in Response to Environmental Signals” (PLoS Pathogens, 2016):

B1: Bap_B amyloid peptide I (aa 487 to 496) (peptide)
peptide: TVGNIISNAG
notes: Bap of Staphylococcus aureus, stretch of region B, aa 487 to 496; source: synthetic peptide, bought: CASLO ApS
B2: Bap_B amyloid peptide II (aa 579 to 584) (peptide)
peptide: GIFSYS
notes: Bap of Staphylococcus aureus, stretch of region B, aa 579 to 584; also called GIFSYS; source: synthetic peptide, bought: CASLO ApS
B3: purified recombinant Bap_B protein (region B of Bap of S. aureus V329, amino acids 361-819, N-terminal hexahistidine tag) (domain or fragment)
chain: QKSLGYTDNYTFASMLFDPGKLDSDDALNSNIIPFDLHSYMSGANSGNRYKIDLKLDPIIAEHVTKISANPSGSNKPVEFVRNKDENGNLTDTWEVNFIRANDGLFGGAEILSQYTAKNGKIELDDTVGNIISNAGNLSNNKLNHQVFVRDSRENKIVRTSESSGYFLTKADDDLVNLENNVSTENNNAFKASSGSATYNENVGEFGGILIDQQIMKNGIFSYSKTKANQWAYNYQIDKDLLPYIEGVELHQYDYKGLNGFDKNYDAKNKVADLTIDEVGNGTITSDNLNKLIEFNNALPETVGVRVVLKLNKSVNNILTKDAKYDSEGNLIRETTKQKEDFTFAGYLTDSKGALINNTLGTSTLALQDYDKDGLLDRYERQLSLSDAENEDTDGDGKNDGDEVVNYKTSPLVGKPQAADITTEDTVVSGSVPLKEGAATQTAKVINAEGTTVGTATVN
notes: Biofilm associated protein Bap of Staphylococcus aureus V329, region B, amino acids 361-819 (1377 bp fragment cloned in pET46-Ek/LIC); The results give domain B as residues 362-819 (chimeras); the methods give 361-819 for the recombinant protein; also called B domain of Bap

Tests used:
[1] = target: the molecule itself; assay: gel formation + electron microscopy + thioflavin-T fluorescence; synthetic peptide at 10 μM, pH 4.5, citrate buffer, room temperature (25°C), four weeks
[2] = target: the molecule itself; assay: thioflavin-T fluorescence; fresh rBap_B at 0.01-0.036 mg/ml, 25 μM ThT, 25°C, pH 4.5, 5 min

| Protein | binding result [1] | binding result [2] |
| --- | --- | --- |
| B1 | binds | – |
| B2 | binds | – |
| B3 | – | binds |
